The target in test [1] is T1, Human GDF11, biotinylated (human, UniProt O95390 299-407, biotin (Biotin Labeling Kit-NH2)).
T1 sequence: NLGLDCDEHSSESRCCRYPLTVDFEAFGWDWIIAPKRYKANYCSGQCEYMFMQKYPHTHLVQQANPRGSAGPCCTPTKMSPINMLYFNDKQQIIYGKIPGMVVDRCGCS
As to the kind of experiment: ELISA. A general note: An ELISA detects its analyte on a solid surface through an enzyme-linked reagent.

The target of the next test is T2, Human GDF8, biotinylated (human, UniProt O14793 267-375, biotin (Biotin Labeling Kit-NH2)).
T2 sequence: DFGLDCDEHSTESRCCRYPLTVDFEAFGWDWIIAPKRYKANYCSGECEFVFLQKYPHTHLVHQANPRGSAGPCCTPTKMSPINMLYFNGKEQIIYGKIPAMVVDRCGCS
In words: ELISA.

B1: Bivalent Human FSTL3-Fc (Fc fusion)
chain: MGSGNPAPGGVCWLQQGQEATCSLVLQTDVTRAECCASGNIDTAWSNLTHPGNKINLLGFLGLVHCLPCKDSCDGVECGPGKACRMLGGRPRCECAPDCSGLPARLQVCGSDGATYRDECELRAARCRGHPDLSVMYRGRCRKSCEHVVCPRPQSCVVDQTGSAHCVVCRAAPCPVPSSPGQELCGNNNVTYISSCHMRQATCFLGRSIGVRHAGSCAGTPEEPPGGESAEEEENFV
Consider B1, for which the binding result in test [1] was “binds”; with Human GDF8, biotinylated, “binds”.

The values above are taken from paper PMC8170004 (iScience, 2021).
